According to US20100136061A1 (LA JOLLA INSTITUTE FOR ALLERGY AND IMMUNOLOGY, published 2010):

T1: Heterotrimeric human LIGHT 32L-214E/32S-214K (combination of LIGHT-S32L and LIGHT-E214K subunits) expressed … (human, UniProt O43557 1-240; O43557 1-240)
T1 construct: Both polymorphic forms co-expressed in EL4 cells; also called combination of LIGHT-E214K and LIGHT-S32L
T1 chain 1: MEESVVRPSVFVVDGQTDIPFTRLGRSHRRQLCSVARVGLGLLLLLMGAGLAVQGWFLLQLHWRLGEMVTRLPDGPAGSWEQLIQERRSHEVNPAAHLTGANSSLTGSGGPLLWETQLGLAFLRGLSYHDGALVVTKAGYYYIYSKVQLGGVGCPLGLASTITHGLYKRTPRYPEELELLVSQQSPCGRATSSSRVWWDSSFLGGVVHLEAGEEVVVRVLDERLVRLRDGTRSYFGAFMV
T1 chain 2: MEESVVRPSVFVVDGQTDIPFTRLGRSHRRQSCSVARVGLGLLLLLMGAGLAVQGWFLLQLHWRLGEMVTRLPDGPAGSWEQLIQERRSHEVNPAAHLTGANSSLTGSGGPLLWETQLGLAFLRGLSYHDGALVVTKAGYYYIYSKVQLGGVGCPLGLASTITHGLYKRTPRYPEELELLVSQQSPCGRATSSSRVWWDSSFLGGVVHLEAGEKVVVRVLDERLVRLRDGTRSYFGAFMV

B1: DcR3-Fc (human Decoy Receptor 3 Fc fusion) (Fc fusion, UniProt O95407 30-300, looked up)
chain: VAETPTYPWRDAETGERLVCAQCPPGTFVQRPCRRDSPTTCGPCPPRHYTQFWNYLERCRYCNVLCGEREEEARACHATHNRACRCRTGFFAHAGFCLEHASCPPGAGVIAPGTPSQNTQCQPCPPGTFSASSSSSEQCQPHRNCTALGLALNVPGSSSHDTLCTSCTGFPLSTRVPGAEECERAVIDFVAFQDISIKRLQRLLQALEAPEGWGPTPRAGRAALQLKLRRRLTELLGAQDGALLVRLLQALRVARMPGLERSVRERFLPVH
notes: also called human DcR3; not shown: Fc part

Experiments:
[1] = target: B1; assay: competition flow cytometry, graded DcR3-Fc against constant LTβR-Fc on LIGHT expressing EL4 cells
Description: (§1) FIGS. 11A-11B. Competition binding assay for LTβR-Fc to LIGHT expressing EL4 cells in the presence of DcR3. […] Specific LTβR-Fc binding to the LIGHT expressing EL4 cells was detected with an anti-LTβR monoclonal antibody (BD-A8). (B) IC50 values were calculated by nonlinear regression analysis using Prism GraphPad (v4; San Diego, USA).

[2] = target: T1, Heterotrimeric human LIGHT …; assay: as above
Description: as §1

Binder | binding result [1] | IC50 ratio against the predominant form of LIGHT (SEQ ID NO:1) [2]
Full Length Human LIGHT, predominant form (32S-214E), expressed on EL4 cells (ligand, Stably expressed on mouse EL4 thymoma cells by retroviral transduction; also called p30 polypeptide; TNFSF-14) MEESVVRPSVFVVDGQTDIPFTRLGRSHRRQSCSVARVGLGLLLLLMGAGLAVQGWFLLQLHWRLGEMVTRLPDGPAGSWEQLIQERRSHEVNPAAHLTGANSSLTGSGGPLLWETQLGLAFLRGLSYHDGALVVTKAGYYYIYSKVQLGGVGCPLGLASTITHGLYKRTPRYPEELELLVSQQSPCGRATSSSRVWWDSSFLGGVVHLEAGEEVVVRVLDERLVRLRDGTRSYFGAFMV | binds | –
B1 | – | ~2.5 times
